Values of other authors, collected in publication PMC2721158.

Legend:
[1] = molecular target: cyclic HPQ peptide … (synthetic construct)
[2] = molecular target: linear peptide HDHPQNL (synthetic construct); test: titration calorimetry
[3] = molecular target: linear HPQ peptide FSHPQNT (synthetic construct); test: titration calorimetry

Sequence of streptavidin (P22629 25-183): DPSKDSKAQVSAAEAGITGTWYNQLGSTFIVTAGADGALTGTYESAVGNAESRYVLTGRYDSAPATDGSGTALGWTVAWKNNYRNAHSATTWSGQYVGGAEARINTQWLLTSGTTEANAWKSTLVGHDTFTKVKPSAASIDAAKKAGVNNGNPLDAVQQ

streptavidin (from UniProt P22629)
Kd [1]: 0.23 µM
Kd [2]: 282 µM
Kd [3]: 126 µM
